Data reported in paper PMC6625847 (Molecular cell, 2019).
“And” between values parts separate entries of the source, which are not always exact repeats. Identical values can stand only once. Like-named read-outs stand apart in the source and are kept apart here. One block for each molecule: values may come before it.

Assays:
[1] = molecular target: Arc (Arg3.1) (UniProt Q63053); experiment: dynamic light scattering of oligomer size; settings: reference: wild type; sites T278
[2] = molecular target: full-length ArcS260D (rat) (UniProt Q63053); experiment: dynamic light scattering
[3] = molecular target: full-length ArcG277D (rat) (UniProt Q63053); experiment: dynamic light scattering
[4] = molecular target: full-length ArcS260D,T278D (rat) (UniProt Q63053); experiment: dynamic light scattering
[5] = molecular target: full-length ArcQ241A (rat) (UniProt Q63053); experiment: dynamic light scattering
[6] = molecular target: full-length ArcS260D,T278A (rat) (UniProt Q63053); experiment: dynamic light scattering
[7] = molecular target: full-length ArcK257A (rat) (UniProt Q63053); experiment: dynamic light scattering
[8] = molecular target: the molecule itself; experiment: dynamic light scattering
[9] = molecular target: the molecule itself; experiment: dynamic light scattering; remark: listed apart in the source

- other: oligomer mass from DLS after 6 min at 30°C [1]: weaker; reference ~2458
Molecule: Arc (Arg3.1) (from UniProt Q63053) T278D

- stoichiometry N [2]: 4
Molecule: full-length ArcS260D (from UniProt Q63053 1-396) (natural protein)

- stoichiometry N [3]: 4
Molecule: full-length ArcG277D (from UniProt Q63053 1-396) (natural protein)

- stoichiometry N [4]: 4
Molecule: full-length ArcS260D,T278D (from UniProt Q63053 1-396) (natural protein)

- stoichiometry N [6]: 4
Molecule: full-length ArcS260D,T278A (from UniProt Q63053 1-396) (natural protein)

- stoichiometry N [7]: 4
Molecule: full-length ArcK257A (from UniProt Q63053 1-396) (natural protein)

Second part, the molecule before the results:

Molecule: full-length ArcQ241A (from UniProt Q63053 1-396) (natural protein)
- stoichiometry N [5]: 4

B1: full-length Rn Arc (wild type) (natural protein, rat, UniProt Q63053 1-396, looked up)
chain: MELDHMTTGGLHAYPAPRGGPAAKPNVILQIGKCRAEMLEHVRRTHRHLLTEVSKQVERELKGLHRSVGKLENNLDGYVPTGDSQRWKKSIKACLCRCQETIANLERWVKREMHVWREVFYRLERWADRLESMGGKYPVGSEPARHTVSVGVGGPEPYCQEADGYDYTVSPYAITPPPAAGELPEQESVGAQQYQSWVPGEDGQPSPGVDTQIFEDPREFLSHLEEYLRQVGGSEEYWLSQIQNHMNGPAKKWWEFKQGSVKNWVEFKKEFLQYSEGTLSREAIQRELDLPQKQGEPLDQFLWRKRDLYQTLYVDAEEEEIIQYVVGTLQPKFKRFLRHPLPKTLEQLIQRGMEVQDGLEQAAEPSVTPLPTEDETEALTPALTSESVASDRTQPE
- stoichiometry N [8]: ~32 and ~48
- stoichiometry N [9]: 4

B2: full-length ArcS260A (natural protein, rat, UniProt Q63053 1-396, looked up)
chain: MELDHMTTGGLHAYPAPRGGPAAKPNVILQIGKCRAEMLEHVRRTHRHLLTEVSKQVERELKGLHRSVGKLENNLDGYVPTGDSQRWKKSIKACLCRCQETIANLERWVKREMHVWREVFYRLERWADRLESMGGKYPVGSEPARHTVSVGVGGPEPYCQEADGYDYTVSPYAITPPPAAGELPEQESVGAQQYQSWVPGEDGQPSPGVDTQIFEDPREFLSHLEEYLRQVGGSEEYWLSQIQNHMNGPAKKWWEFKQGAVKNWVEFKKEFLQYSEGTLSREAIQRELDLPQKQGEPLDQFLWRKRDLYQTLYVDAEEEEIIQYVVGTLQPKFKRFLRHPLPKTLEQLIQRGMEVQDGLEQAAEPSVTPLPTEDETEALTPALTSESVASDRTQPE
- binding result [8]: binds

B3: full-length ArcT278D (natural protein, rat, UniProt Q63053 1-396, looked up)
chain: MELDHMTTGGLHAYPAPRGGPAAKPNVILQIGKCRAEMLEHVRRTHRHLLTEVSKQVERELKGLHRSVGKLENNLDGYVPTGDSQRWKKSIKACLCRCQETIANLERWVKREMHVWREVFYRLERWADRLESMGGKYPVGSEPARHTVSVGVGGPEPYCQEADGYDYTVSPYAITPPPAAGELPEQESVGAQQYQSWVPGEDGQPSPGVDTQIFEDPREFLSHLEEYLRQVGGSEEYWLSQIQNHMNGPAKKWWEFKQGSVKNWVEFKKEFLQYSEGDLSREAIQRELDLPQKQGEPLDQFLWRKRDLYQTLYVDAEEEEIIQYVVGTLQPKFKRFLRHPLPKTLEQLIQRGMEVQDGLEQAAEPSVTPLPTEDETEALTPALTSESVASDRTQPE
- stoichiometry N [8]: ~24
- stoichiometry N [9]: 4

B4: full-length ArcS260A,T278A (natural protein, rat, UniProt Q63053 1-396, looked up)
chain: MELDHMTTGGLHAYPAPRGGPAAKPNVILQIGKCRAEMLEHVRRTHRHLLTEVSKQVERELKGLHRSVGKLENNLDGYVPTGDSQRWKKSIKACLCRCQETIANLERWVKREMHVWREVFYRLERWADRLESMGGKYPVGSEPARHTVSVGVGGPEPYCQEADGYDYTVSPYAITPPPAAGELPEQESVGAQQYQSWVPGEDGQPSPGVDTQIFEDPREFLSHLEEYLRQVGGSEEYWLSQIQNHMNGPAKKWWEFKQGAVKNWVEFKKEFLQYSEGALSREAIQRELDLPQKQGEPLDQFLWRKRDLYQTLYVDAEEEEIIQYVVGTLQPKFKRFLRHPLPKTLEQLIQRGMEVQDGLEQAAEPSVTPLPTEDETEALTPALTSESVASDRTQPE
- binding result [8]: binds
